Results from US20250270332A1.

Molecular target: FZD/LRP
Assay: cell-based or functional assay

Wnt3a, recombinantly produced ligand, sequence (P56704 19-352): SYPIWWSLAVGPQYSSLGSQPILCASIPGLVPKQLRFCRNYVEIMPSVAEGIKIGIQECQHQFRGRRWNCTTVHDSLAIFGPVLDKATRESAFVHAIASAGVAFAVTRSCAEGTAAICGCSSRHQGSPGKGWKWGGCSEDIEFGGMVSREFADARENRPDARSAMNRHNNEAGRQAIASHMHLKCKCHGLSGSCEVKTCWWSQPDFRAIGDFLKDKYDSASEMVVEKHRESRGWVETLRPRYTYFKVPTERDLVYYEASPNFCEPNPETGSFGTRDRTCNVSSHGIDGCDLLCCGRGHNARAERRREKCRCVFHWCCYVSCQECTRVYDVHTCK

% Wnt Maxima Avg: 100%
EC50 (nM), TOPFLASH assay: 6 nM
Maximal Signal (% Wnt3a maxima) (% Wnt3a maxima): 100
Topflash EC50 (nM) Avg: 6 nM
Substance: Wnt3a, recombinantly produced ligand
